The values below come from article PMC12774657, “Multimodal bHLH-PAS DNA binding controls specificity and drives obesity”.

This data set has as its target SIM1 bHLH-PASA-PASB;ARNT2 bHLH-PASA-PASB (;, UniProt P81133;Q9HBZ2 1-348;1-455, |). Description: EMSA; preferred over HIF2a probe; EMSA: 10 nM probe, 20 mM Tris pH 8.0, 250 mM NaCl, 16 ug/ml salmon sperm ssDNA, 30 ug/ml BSA, 1.25 mM MgCl2, 6% glycerol, 10 mM DTT, room temperature 30 min, 5-7% native PAGE. Particulars: protein: recombinant;recombinant; tags: 6xHis-TEV, tag removed;untagged; copies: 1;1; label: FAM (upper strand); blunt. Background: A gel shift assay detects complexes by their altered migration in electrophoresis.

SIM1 bHLH-PASA-PASB;ARNT2 bHLH-PASA-PASB, sequence (P81133 1-348, chain 1 of 2): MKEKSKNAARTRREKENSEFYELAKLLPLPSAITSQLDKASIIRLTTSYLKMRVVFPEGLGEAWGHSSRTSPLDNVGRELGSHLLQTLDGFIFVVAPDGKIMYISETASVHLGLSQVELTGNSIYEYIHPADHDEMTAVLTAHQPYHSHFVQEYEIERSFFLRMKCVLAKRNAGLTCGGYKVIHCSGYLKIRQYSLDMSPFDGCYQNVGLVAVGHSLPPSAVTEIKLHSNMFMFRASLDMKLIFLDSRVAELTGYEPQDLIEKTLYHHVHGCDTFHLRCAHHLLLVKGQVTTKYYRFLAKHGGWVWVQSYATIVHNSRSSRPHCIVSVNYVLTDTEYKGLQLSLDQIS
SIM1 bHLH-PASA-PASB;ARNT2 bHLH-PASA-PASB, sequence (Q9HBZ2 1-455, chain 2 of 2): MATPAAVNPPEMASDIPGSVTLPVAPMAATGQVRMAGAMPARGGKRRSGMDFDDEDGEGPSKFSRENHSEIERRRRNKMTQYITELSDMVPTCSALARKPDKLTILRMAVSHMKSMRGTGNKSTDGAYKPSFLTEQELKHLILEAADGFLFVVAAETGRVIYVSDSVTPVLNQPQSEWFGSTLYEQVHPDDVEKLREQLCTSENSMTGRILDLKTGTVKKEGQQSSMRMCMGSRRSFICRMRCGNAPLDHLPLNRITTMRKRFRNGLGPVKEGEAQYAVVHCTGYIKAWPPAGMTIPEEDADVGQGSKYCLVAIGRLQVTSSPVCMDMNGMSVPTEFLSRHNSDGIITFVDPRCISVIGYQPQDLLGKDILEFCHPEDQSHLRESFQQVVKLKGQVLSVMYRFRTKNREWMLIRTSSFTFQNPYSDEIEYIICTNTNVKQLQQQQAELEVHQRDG

B1: SRE 22mer (top SIM1/ARNT2 probe) (dsDNA)
DNA 1: AAAAGGTACGTGACCAAAAAGA
DNA 2: TCTTTTTGGTCACGTACCTTTT
Turning to B1, the binding result is on record as “binds”.
